The values that follow come from article doi:10.1101/2022.10.09.511488 (bioRxiv, 2022).

The term stoichiometry N denotes the number of molecules, sites or subunits per partner or assembly.

Series [1] concerns the target Huc protomer (HucSL heterodimer) (Mycobacterium smegmatis mc2155). As to the kind of experiment: cryo-EM structure.
The series “cryo-EM structure” deals with the molecule itself. As to the kind of experiment: cryo-EM structure.

“Huc protomer (HucSL heterodimer) (complex)”: the stoichiometry N in series [1] stood at 2.

B1: HucM (MSMEG_2261) (natural protein)
chain: MASNGHSAGQNAIDELPDISPVDGIRRRLDDPQVAEALNSLLDHADLLAVLVKGLDGFVRRGDDIANNLTSAIGELKALNAADTPIPALAALKDVDLAGLANSLATLSGGLVKATPALNAVLDSLTDQRGAEVLSALGDALVAARTSAPPAPRGVRGMWKTLRAAAKDPDVGRGVSYLIEVARVFGSKV
Turning to B1, the “stoichiometry N” value in “cryo-EM structure” amounted to 4.
